# The supplement of paper PMC9112550, “Optimization of the antimicrobial peptide Bac7 by deep mutational scanning” (BMC Biology, 2022)
# System: Escherichia coli TOP10
# Experiment: shrunken log2 fold change of peptide-encoding DNA abundance (4.5 h post-induction vs induction); higher = less antimicrobial activity (less host growth inhibition)
# Details: time post-induction: 4.5 h; library: site-saturation at positions 5, 18, 19, 20
# 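Also: peptides expressed intracellularly from a pBAD plasmid library in pooled LB shake-flask culture, induced with 0.3% L-arabinose, DNA abundance read by NGS, three biological replicates, DESeq2 with apeglm shrinkage.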
row,Sequence,shrunken log2 fold change
1,RRIRQRPPRLPRPRPRPAFDPRP,-0.094
2,RRIRMRPPRLPRPRPRPSYKPRP,-0.296
3,RRIRIRPPRLPRPRPRPDKTPRP,-0.0467
4,RRIRIRPPRLPRPRPRPMTVPRP,0.0104
5,RRIRARPPRLPRPRPRPPLNPRP,0.612
6,RRIRKRPPRLPRPRPRPCILPRP,-0.283
7,RRIRKRPPRLPRPRPRPFIVPRP,-0.345
8,RRIRFRPPRLPRPRPRPDTNPRP,-0.208
9,RRIRDRPPRLPRPRPRPMLNPRP,0.21
10,RRIRWRPPRLPRPRPRPAWGPRP,0.477
11,RRIRHRPPRLPRPRPRPTGVPRP,0.18
12,RRIRTRPPRLPRPRPRPGFRPRP,-0.0537
13,RRIRGRPPRLPRPRPRPGQYPRP,-0.0691
14,RRIRDRPPRLPRPRPRPYIWPRP,-0.373
15,RRIRERPPRLPRPRPRPNFSPRP,-0.114
16,RRIRARPPRLPRPRPRPFPQPRP,0.512
17,RRIRGRPPRLPRPRPRPHFAPRP,0.628
18,RRIRMRPPRLPRPRPRPAKIPRP,0.211
19,RRIRNRPPRLPRPRPRPRCPPRP,-0.0521
20,RRIRNRPPRLPRPRPRPPYFPRP,-0.172
21,RRIRMRPPRLPRPRPRPILYPRP,-0.0871
22,RRIRQRPPRLPRPRPRPQIAPRP,-0.133
23,RRIRWRPPRLPRPRPRPFVDPRP,0.0365
24,RRIRDRPPRLPRPRPRPWWFPRP,-0.00226
25,RRIRCRPPRLPRPRPRPCSTPRP,-0.245

row,Sequence,shrunken log2 fold change
1,RRIRNRPPRLPRPRPRPIYAPRP,-0.71
2,RRIRCRPPRLPRPRPRPHADPRP,0.145
3,RRIRPRPPRLPRPRPRPQDFPRP,-0.0957
4,RRIRCRPPRLPRPRPRPCAIPRP,0.651
5,RRIRNRPPRLPRPRPRPSGDPRP,-0.252
6,RRIRDRPPRLPRPRPRPIFIPRP,-0.345
7,RRIRLRPPRLPRPRPRPHEQPRP,0.00509
8,RRIRKRPPRLPRPRPRPMSRPRP,0.0843
9,RRIRMRPPRLPRPRPRPKWSPRP,0.894
10,RRIRFRPPRLPRPRPRPMQMPRP,0.142
11,RRIRRRPPRLPRPRPRPFQFPRP,-0.0742
12,RRIRVRPPRLPRPRPRPAMHPRP,0.0999
13,RRIRQRPPRLPRPRPRPIPDPRP,-0.07
14,RRIRLRPPRLPRPRPRPAGRPRP,0.0831
15,RRIRLRPPRLPRPRPRPHCLPRP,-0.0829
16,RRIRRRPPRLPRPRPRPLHVPRP,-0.125
17,RRIRARPPRLPRPRPRPPVRPRP,0.609
18,RRIRRRPPRLPRPRPRPFHPPRP,0.111
19,RRIRSRPPRLPRPRPRPPSSPRP,-0.0711
20,RRIRMRPPRLPRPRPRPWAFPRP,-0.121
21,RRIRQRPPRLPRPRPRPWCRPRP,-0.325
22,RRIRARPPRLPRPRPRPWMTPRP,-0.141
23,RRIRARPPRLPRPRPRPTPKPRP,0.956
24,RRIRERPPRLPRPRPRPICMPRP,-0.309
25,RRIRLRPPRLPRPRPRPSDQPRP,-0.18

row,Sequence,shrunken log2 fold change
1,RRIRYRPPRLPRPRPRPMWAPRP,-0.0298
2,RRIRNRPPRLPRPRPRPGPHPRP,0.0143
3,RRIRCRPPRLPRPRPRPKCFPRP,-0.372
4,RRIRFRPPRLPRPRPRPKFSPRP,-0.0365
5,RRIRTRPPRLPRPRPRPHMDPRP,-0.422
6,RRIRVRPPRLPRPRPRPRGKPRP,0.252
7,RRIRLRPPRLPRPRPRPNFFPRP,0.247
8,RRIRHRPPRLPRPRPRPTWSPRP,0.0859
9,RRIRTRPPRLPRPRPRPWGWPRP,-0.0131
10,RRIRIRPPRLPRPRPRPLPAPRP,0.041
11,RRIRDRPPRLPRPRPRPCFPPRP,-0.0323
12,RRIRKRPPRLPRPRPRPHLTPRP,0.055
13,RRIRERPPRLPRPRPRPAAQPRP,0.261
14,RRIRERPPRLPRPRPRPPCDPRP,-0.187
15,RRIRQRPPRLPRPRPRPDISPRP,0.0318
16,RRIRHRPPRLPRPRPRPNVFPRP,-0.116
17,RRIRKRPPRLPRPRPRPGPLPRP,0.578
18,RRIRHRPPRLPRPRPRPTQTPRP,-0.0128
19,RRIRMRPPRLPRPRPRPQGIPRP,-0.154
20,RRIRTRPPRLPRPRPRPGCMPRP,-0.0219
21,RRIRFRPPRLPRPRPRPGKKPRP,0.0937
22,RRIRGRPPRLPRPRPRPAELPRP,0.472
23,RRIRSRPPRLPRPRPRPQGSPRP,-0.00511
24,RRIRERPPRLPRPRPRPHYNPRP,-1.12
25,RRIRKRPPRLPRPRPRPVMVPRP,0.315
